Data from the supplement of paper PMC12458215.
± gives the uncertainty stated by the source.

System: HEK293T
Assay: plasma membrane surface immunostaining intensity (anti-HA, deep receptor scanning) (arbitrary fluorescence units); higher = higher plasma membrane expression
Conditions: GPCR class: A

Row | Sequence | plasma membrane surface immunostaining intensity
1 | MGTCDIVTEANISSGPESNTTGITAFSMPSWQLALWATAYLALVLVAVTGNAIVIWIILAHRRMRTVTNYFIVNLALADLCMAAFNAAFNFVYASHNIWYFGRAFCYFQNLFPITAMFVSIYSMTAIAADRYMAIVHPFQPRLSAPSTKAVIAGIWLVALALASPQCFYSTVTMDQGATKCVVAWPEDSGGKTLLLYHLVVIALIYFLPLAVMFVAYSVIGLTLWRRAVPGHQAHGANLRHLQAMKKFVKTMVLVVLTFAICWLPYHLYFILGSFQEDIYCHKFIQQVYLALFWLAMSSTMYNPIIYCCLNHRFRSGFRLAFRCCPWVTPTKEDKLELTPTTSLSTRVNRCHTKETLFMAGDTAPSEATSGEAGRPQDGSGLWFGYGLLAPTKTHVEI [TACR2] | 474 ± 41
2 | MGTEATEQVSWGHYSGDEEDAYSAEPLPELCYKADVQAFSRAFQPSVSLTVAALGLAGNGLVLATHLAARRAARSPTSAHLLQLALADLLLALTLPFAAAGALQGWSLGSATCRTISGLYSASFHAGFLFLACISADRYVAIARALPAGPRPSTPGRAHLVSVIVWLLSLLLALPALLFSQDGQREGQRRCRLIFPEGLTQTVKGASAVAQVALGFALPLGVMVACYALLGRTLLAARGPERRRALRVVVALVAAFVVLQLPYSLALLLDTADLLAARERSCPASKRKDVALLVTSGLALARCGLNPVLYAFLGLRFRQDLRRLLRGGSCPSGPQPRRGCPRRPRLSSCSAPTETHSLSWDN [CCR10] | 424 ± 20
3 | MINSTSTQPPDESCSQNLLITQQIIPVLYCMVFIAGILLNGVSGWIFFYVPSSKSFIIYLKNIVIADFVMSLTFPFKILGDSGLGPWQLNVFVCRVSAVLFYVNMYVSIVFFGLISFDRYYKIVKPLWTSFIQSVSYSKLLSVIVWMLMLLLAVPNIILTNQSVREVTQIKCIELKSELGRKWHKASNYIFVAIFWIVFLLLIVFYTAITKKIFKSHLKSSRNSTSVKKKSSRNIFSIVFVFFVCFVPYHIARIPYTKSQTEAHYSCQSKEILRYMKEFTLLLSAANVCLDPIIYFFLCQPFREILCKKLHIPLKAQNDLDISRIKRGNTTLESTDTL [P2RY14] | 5190 ± 71
4 | MITLNNQDQPVPFNSSHPDEYKIAALVFYSCIFIIGLFVNITALWVFSCTTKKRTTVTIYMMNVALVDLIFIMTLPFRMFYYAKDEWPFGEYFCQILGALTVFYPSIALWLLAFISADRYMAIVQPKYAKELKNTCKAVLACVGVWIMTLTTTTPLLLLYKDPDKDSTPATCLKISDIIYLKAVNVLNLTRLTFFFLIPLFIMIGCYLVIIHNLLHGRTSKLKPKVKEKSIRIIITLLVQVLVCFMPFHICFAFLMLGTGENSYNPWGAFTTFLMNLSTCLDVILYYIVSKQFQARVISVMLYRNYLRSMRRKSFRSGSLRSLSNINSEML [GPR18] | 360 ± 120
5 | MKALIFAAAGLLLLLPTFCQSGMENDTNNLAKPTLPIKTFRGAPPNSFEEFPFSALEGWTGATITVKIKCPEESASHLHVKNATMGYLTSSLSTKLIPAIYLLVFVVGVPANAVTLWMLFFRTRSICTTVFYTNLAIADFLFCVTLPFKIAYHLNGNNWVFGEVLCRATTVIFYGNMYCSILLLACISINRYLAIVHPFTYRGLPKHTYALVTCGLVWATVFLYMLPFFILKQEYYLVQPDITTCHDVHNTCESSSPFQLYYFISLAFFGFLIPFVLIIYCYAAIIRTLNAYDHRWLWYVKASLLILVIFTICFAPSNIILIIHHANYYYNNTDGLYFIYLIALCLGSLNSCLDPFLYFLMSKTRNHSTAYLTK [F2RL2] | 221 ± 21
6 | MKETRGYGGDAPFCTRLNHSYTGMWAPERSAEARGNLTRPPGSGEDCGSVSVAFPITMLLTGFVGNALAMLLVSRSYRRRESKRKKSFLLCIGWLALTDLVGQLLTTPVVIVVYLSKQRWEHIDPSGRLCTFFGLTMTVFGLSSLFIASAMAVERALAIRAPHWYASHMKTRATRAVLLGVWLAVLAFALLPVLGVGQYTVQWPGTWCFISTGRGGNGTSSSHNWGNLFFASAFAFLGLLALTVTFSCNLATIKALVSRCRAKATASQSSAQWGRITTETAIQLMGIMCVLSVCWSPLLIMMLKMIFNQTSVEHCKTHTEKQKECNFFLIAVRLASLNQILDPWVYLLLRKILLRKFCQIRYHTNNYASSSTSLPCQCSSTLMWSDHLER [PTGER3] | 684 ± 110

Same assay, conditions: GPCR class: A (Olfactory)

Row | Sequence | plasma membrane surface immunostaining intensity
7 | MGRWVNQSYTDGFFLLGIFSHSQTDLVLFSAVMVVFTVALCGNVLLIFLIYLDAGLHTPMYFFLSQLSLMDLMLVCNIVPKMAANFLSGRKSISFVGCGIQIGFFVSLVGSEGLLLGLMAYDRYVAVSHPLHYPILMNQRVCLQITGSSWAFGIIDGVIQMVAAMGLPYCGSRSVDHFFCEVQALLKLACADTSLFDTLLFACCVFMLLLPFSIIMASYACILGAVLRIRSAQAWKKALATCSSHLTAVTLFYGAAMFMYLRPRRYRAPSHDKVASIFYTVLTPMLNPLIYSLRNGEVMGALRKGLDRCRIGSQH [OR2V1] | 153 ± 28
8 | MGSFNTSFEDGFILVGFSDWPQLEPILFVFIFIFYSLTLFGNTIIIALSWLDLRLHTPMYFFLSHLSLLDLCFTTSTVPQLLINLCGVDRTITRGGCVAQLFIYLALGSTECVLLVVMAFDRYAAVCRPLHYMAIMHPHLCQTLAIASWGAGFVNSLIQTGLAMAMPLCGHRLNHFFCEMPVFLKLACADTEGTEAKMFVARVIVVAVPAALILGSYVHIAHAVLRVKSTAGRRKAFGTCGSHLLVVFLFYGSAIYTYLQSIHNYSEREGKFVALFYTIITPILNPLIYTLRNKDVKGALWKVLWRGRDSG [OR2Y1] | 132 ± 17
9 | MGTDNQTWVSEFILLGLSSDWDTRVSLFVLFLVMYVVTVLGNCLIVLLIRLDSRLHTPMYFFLTNLSLVDVSYATSVVPQLLAHFLAEHKAIPFQSCAAQLFFSLALGGIEFVLLAVMAYDRYVAVCDALRYSAIMHGGLCARLAITSWVSGFISSPVQTAITFQLPMCRNKFIDHISCELLAVVRLACVDTSSNEVTIMVSSIVLLMTPFCLVLLSYIQIISTILKIQSREGRKKAFHTCASHLTVVALCYGVAIFTYIQPHSSPSVLQEKLFSVFYAILTPMLNPMIYSLRNKEVKGAWQKLLWKFSGLTSKLAT [OR2F1] | 181 ± 74
10 | MKAGNFSDTPEFFLLGLSGDPELQPILFMLFLSMYLATMLGNLLIILAVNSDSHLHTPMYFLLSILSLVDICFTSTTMPKMLVNIQAQAQSINYTGCLTQICFVLVFVGLENGILVMMAYDRFVAICHPLRYNVIMNPKLCGLLLLLSFIVSVLDALLHTLMVLQLTFCIDLEIPHFFCELAHILKLACSDVLINNILVYLVTSLLGVVPLSGIIFSYTRIVSSVMKIPSAGGKYKAFSICGSHLIVVSLFYGTGFGVYLSSGATHSSRKGAIASVMYTVVTPMLNPLIYSLRNKDMLKALRKLISRIPSFH [OR7G3] | 111 ± 21
11 | MKANYSAEERFLLLGFSDWPSLQPVLFALVLLCYLLTLTGNSALVLLAVRDPRLHTPMYYFLCHLALVDAGFTTSVVPPLLANLRGPALWLPRSHCTAQLCASLALGSAECVLLAVMALDRAAAVCRPLRYAGLVSPRLCRTLASASWLSGLTNSVAQTALLAERPLCAPRLLDHFICELPALLKLACGGDGDTTENQMFAARVVILLLPFAVILASYGAVARAVCCMRFSGGRRRAVGTCGSHLTAVCLFYGSAIYTYLQPAQRYNQARGKFVSLFYTVVTPALNPLIYTLRNKKVKGAARRLLRSLGRGQAGQ [OR2I1P] | 132 ± 5.4
12 | MKIANNTVVTEFILLGLTQSQDIQLLVFVLILIFYLIILPGNFLIIFTIRSDPGLTAPLYLFLGNLAFLDASYSFIVAPRMLVDFLSEKKVISYRGCITQLFFLHFLGGGEGLLLVVMAFDRYIAICRPLHCSTVMNPRACYAMMLALWLGGFVHSIIQVVLILRLPFCGPNQLDNFFCDVRQVIKLACTDMFVVELLMVFNSGLMTLLCFLGLLASYAVILCHVRRAASEGKNKAMSTCTTRVIIILLMFGPAIFIYICPFRALPADKMVSLFHTVIFPLMNPMIYTLRNQEVKTSMKRLLSRHVVCQVDFIIRN [OR4N4C] | 323 ± 130
13 | MKIANNTVVTEFILLGLTQSQDIQLLVFVLILIFYLIILPGNFLIIFTIRSDPGLTAPLYLFLGNLAFLDASYSFIVAPRMLVDFLSEKKVISYRGCITQLFFLHFLGGGEGLLLVVMAFDRYIAICRPLHCSTVMNPRACYAMMLALWLGGFVHSIIQVVLILRLPFCGPNQLDNFFCDVRQVIKLACTDMFVVELLMVFNSGLMTLLCFLGLLASYAVILCHVRRAASEGKNKAMSTCTTRVIIILLMFGPAIFIYMCPFRALPADKMVSLFHTVIFPLMNPMIYTLRNQEVKTSMKRLLSRHVVCQVDFIIRN [OR4N4] | 255 ± 110
14 | MKKENQSFNLDFILLGVTSQQEQNNVFFVIFLCIYPITLTGNLLIILAICADIRLHNPMYFLLANLSLVDIIFSSVTIPKVLANHLLGSKFISFGGCLMQMYFMIALAKADSYTLAAMAYDRAVAISCPLHYTTIMSPRSCILLIAGSWVIGNTSALPHTLLTASLSFCGNQEVANFYCDIMPLLKLSCSDVHFNVKMMYLGVGVFSLPLLCIIVSYVQVFSTVFQVPSTKSLFKAFCTCGSHLTVVFLYYGTTMGMYFRPLTSYSPKDAVITVMYVAVTPALNPFIYSLRNWDMKAALQKLFSKRISS [OR1A2] | 207 ± 46

Same assay, conditions: GPCR class: B

Row | Sequence | plasma membrane surface immunostaining intensity
15 | MGTARIAPGLALLLCCPVLSSAYALVDADDVMTKEEQIFLLHRAQAQCEKRLKEVLQRPASIMESDKGWTSASTSGKPRKDKASGKLYPESEEDKEAPTGSRYRGRPCLPEWDHILCWPLGAPGEVVAVPCPDYIYDFNHKGHAYRRCDRNGSWELVPGHNRTWANYSECVKFLTNETREREVFDRLGMIYTVGYSVSLASLTVAVLILAYFRRLHCTRNYIHMHLFLSFMLRAVSIFVKDAVLYSGATLDEAERLTEEELRAIAQAPPPPATAAAGYAGCRVAVTFFLYFLATNYYWILVEGLYLHSLIFMAFFSEKKYLWGFTVFGWGLPAVFVAVWVSVRATLANTGCWDLSSGNKKWIIQVPILASIVLNFILFINIVRVLATKLRETNAGRCDTRQQYRKLLKSTLVLMPLFGVHYIVFMATPYTEVSGTLWQVQMHYEMLFNSFQGFFVAIIYCFCNGEVQAEIKKSWSRWTLALDFKRKARSGSSSYSYGPMVSHTSVTNVGPRVGLGLPLSPRLLPTATTNGHPQLPGHAKPGTPALETLETTPPAMAAPKDDGFLNGSCSGLDEEASGPERPPALLQEEWETVM [PTH1R] | 770 ± 69

Same assay, conditions: GPCR class: Taste

Row | Sequence | plasma membrane surface immunostaining intensity
16 | MGPRAKTISSLFFLLWVLAEPAENSDFYLPGDYLLGGLFSLHANMKGIVHLNFLQVPMCKEYEVKVIGYNLMQAMRFAVEEINNDSSLLPGVLLGYEIVDVCYISNNVQPVLYFLAHEDNLLPIQEDYSNYISRVVAVIGPDNSESVMTVANFLSLFLLPQITYSAISDELRDKVRFPALLRTTPSADHHIEAMVQLMLHFRWNWIIVLVSSDTYGRDNGQLLGERVARRDICIAFQETLPTLQPNQNMTSEERQRLVTIVDKLQQSTARVVVVFSPDLTLYHFFNEVLRQNFTGAVWIASESWAIDPVLHNLTELRHLGTFLGITIQSVPIPGFSEFREWGPQAGPPPLSRTSQSYTCNQECDNCLNATLSFNTILRLSGERVVYSVYSAVYAVAHALHSLLGCDKSTCTKRVVYPWQLLEEIWKVNFTLLDHQIFFDPQGDVALHLEIVQWQWDRSQNPFQSVASYYPLQRQLKNIQDISWHTINNTIPMSMCSKRCQSGQKKKPVGIHVCCFECIDCLPGTFLNHTEDEYECQACPNNEWSYQSETSCFKRQLVFLEWHEAPTIAVALLAALGFLSTLAILVIFWRHFQTPIVRSAGGPMCFLMLTLLLVAYMVVPVYVGPPKVSTCLCRQALFPLCFTICISCIAVRSFQIVCAFKMASRFPRAYSYWVRYQGPYVSMAFITVLKMVIVVIGMLATGLSPTTRTDPDDPKITIVSCNPNYRNSLLFNTSLDLLLSVVGFSFAYMGKELPTNYNEAKFITLSMTFYFTSSVSLCTFMSAYSGVLVTIVDLLVTVLNLLAISLGYFGPKCYMILFYPERNTPAYFNSMIQGYTMRRD [TAS1R2] | 229 ± 23
